± gives the uncertainty stated by the source.
B1: Homeobox protein cut-like 2, residues 895 to 963; numbered along this chain, O14529 (parent)
chain: EVDTLELTRQVKEKLAKNGICQRIFGEKVLGLSQGSVSDMLSRPKPWSKLTQKGREPFIRMQLWLSDQL

Variants of: B1
Experiment: abundance fitness (aPCA) (normalised: wild type 0, dead -1); higher = more abundant; growth selection in yeast, the domain comes from the species named
Details: Homo sapiens

Question: Which abundance fitness does the source give for EVDTLELTRQVKEKLAKNGICQRIFGEKVLGLSQGSVSDMLSRPAPWSKLTQKGREPFIRMQLWLSDQL here?
Answer: The abundance fitness was -0.129 ± 0.11.

Question: Which abundance fitness does the source give for EVDTLELTRQVKEKLAKNGICQRIFGEKVLGLSQGSVSDMLSRPPPWSKLTQKGREPFIRMQLWLSDQL here?
Answer: Its abundance fitness is -0.073 ± 0.16.

Question: For EVDTLELTRQVKEKLAKNGICQRIFGEKVLGLSQGSVSDMLSRPVPWSKLTQKGREPFIRMQLWLSDQL, which abundance fitness is on record?
Answer: The abundance fitness was -0.083 ± 0.034.

Question: For EVDTLELTRQVKEKLAKNGICQRIFGEKVLGLSQGSVSDMLSRPCPWSKLTQKGREPFIRMQLWLSDQL, which abundance fitness is on record?
Answer: The abundance fitness was -0.229 ± 0.24.

Question: For EVDTLELTRQVKEKLAKNGICQRIFGEKVLGLSQGSVSDMLSRPTPWSKLTQKGREPFIRMQLWLSDQL, which abundance fitness is on record?
Answer: The abundance fitness was -0.149 ± 0.055.

Question: With EVDTLELTRQVKEKLAKNGICQRIFGEKVLGLSQGSVSDMLSRPWPWSKLTQKGREPFIRMQLWLSDQL as the variant, how does the abundance fitness read?
Answer: Its abundance fitness is -0.313 ± 0.24.

Question: Which abundance fitness does the source give for EVDTLELTRQVKEKLAKNGICQRIFGEKVLGLSQGSVSDMLSRPHPWSKLTQKGREPFIRMQLWLSDQL here?
Answer: The abundance fitness was -0.288 ± 0.083.

Question: Which abundance fitness does the source give for EVDTLELTRQVKEKLAKNGICQRIFGEKVLGLSQGSVSDMLSRPMPWSKLTQKGREPFIRMQLWLSDQL here?
Answer: The abundance fitness was -0.053 ± 0.026.

Question: Which abundance fitness does the source give for EVDTLELTRQVKEKLAKNGICQRIFGEKVLGLSQGSVSDMLSRPFPWSKLTQKGREPFIRMQLWLSDQL here?
Answer: Its abundance fitness is -0.243 ± 0.035.

Question: For EVDTLELTRQVKEKLAKNGICQRIFGEKVLGLSQGSVSDMLSRPLPWSKLTQKGREPFIRMQLWLSDQL, which abundance fitness is on record?
Answer: The abundance fitness was -0.009 ± 0.025.

Question: Which abundance fitness does the source give for EVDTLELTRQVKEKLAKNGICQRIFGEKVLGLSQGSVSDMLSRPYPWSKLTQKGREPFIRMQLWLSDQL here?
Answer: Its abundance fitness is -0.265 ± 0.066.

Question: Which abundance fitness does the source give for EVDTLELTRQVKEKLAKNGICQRIFGEKVLGLSQGSVSDMLSRPRPWSKLTQKGREPFIRMQLWLSDQL here?
Answer: The abundance fitness was 0.128 ± 0.14.

Question: For EVDTLELTRQVKEKLAKNGICQRIFGEKVLGLSQGSVSDMLSRPEPWSKLTQKGREPFIRMQLWLSDQL, which abundance fitness is on record?
Answer: Its abundance fitness is -0.173 ± 0.074.

Question: With EVDTLELTRQVKEKLAKNGICQRIFGEKVLGLSQGSVSDMLSRPDPWSKLTQKGREPFIRMQLWLSDQL as the variant, how does the abundance fitness read?
Answer: Its abundance fitness is -0.108 ± 0.068.

Question: Which abundance fitness does the source give for EVDTLELTRQVKEKLAKNGICQRIFGEKVLGLSQGSVSDMLSRPQPWSKLTQKGREPFIRMQLWLSDQL here?
Answer: Its abundance fitness is -0.132 ± 0.059.

Question: Which abundance fitness does the source give for EVDTLELTRQVKEKLAKNGICQRIFGEKVLGLSQGSVSDMLSRKKPWSKLTQKGREPFIRMQLWLSDQL here?
Answer: Its abundance fitness is -0.134 ± 0.075.

Question: For EVDTLELTRQVKEKLAKNGICQRIFGEKVLGLSQGSVSDMLSRWKPWSKLTQKGREPFIRMQLWLSDQL, which abundance fitness is on record?
Answer: The abundance fitness was -0.103 ± 0.058.

Question: For EVDTLELTRQVKEKLAKNGICQRIFGEKVLGLSQGSVSDMLSRCKPWSKLTQKGREPFIRMQLWLSDQL, which abundance fitness is on record?
Answer: Its abundance fitness is -0.153 ± 0.054.

Question: With EVDTLELTRQVKEKLAKNGICQRIFGEKVLGLSQGSVSDMLSRGKPWSKLTQKGREPFIRMQLWLSDQL as the variant, how does the abundance fitness read?
Answer: The abundance fitness was -0.261 ± 0.058.

Question: For EVDTLELTRQVKEKLAKNGICQRIFGEKVLGLSQGSVSDMLSRTKPWSKLTQKGREPFIRMQLWLSDQL, which abundance fitness is on record?
Answer: The abundance fitness was -0.101 ± 0.043.

Question: Which abundance fitness does the source give for EVDTLELTRQVKEKLAKNGICQRIFGEKVLGLSQGSVSDMLSRIKPWSKLTQKGREPFIRMQLWLSDQL here?
Answer: Its abundance fitness is -0.113 ± 0.056.

Question: Which abundance fitness does the source give for EVDTLELTRQVKEKLAKNGICQRIFGEKVLGLSQGSVSDMLSRFKPWSKLTQKGREPFIRMQLWLSDQL here?
Answer: The abundance fitness was -0.105 ± 0.045.

Question: Which abundance fitness does the source give for EVDTLELTRQVKEKLAKNGICQRIFGEKVLGLSQGSVSDMLSRDKPWSKLTQKGREPFIRMQLWLSDQL here?
Answer: The abundance fitness was -0.429 ± 0.099.

Question: For EVDTLELTRQVKEKLAKNGICQRIFGEKVLGLSQGSVSDMLSREKPWSKLTQKGREPFIRMQLWLSDQL, which abundance fitness is on record?
Answer: The abundance fitness was -0.665 ± 0.075.

Question: With EVDTLELTRQVKEKLAKNGICQRIFGEKVLGLSQGSVSDMLSRRKPWSKLTQKGREPFIRMQLWLSDQL as the variant, how does the abundance fitness read?
Answer: Its abundance fitness is -0.03 ± 0.042.

Question: For EVDTLELTRQVKEKLAKNGICQRIFGEKVLGLSQGSVSDMLSRYKPWSKLTQKGREPFIRMQLWLSDQL, which abundance fitness is on record?
Answer: The abundance fitness was -0.041 ± 0.057.

Question: For EVDTLELTRQVKEKLAKNGICQRIFGEKVLGLSQGSVSDMLSRNKPWSKLTQKGREPFIRMQLWLSDQL, which abundance fitness is on record?
Answer: Its abundance fitness is -0.385 ± 0.11.

Question: Which abundance fitness does the source give for EVDTLELTRQVKEKLAKNGICQRIFGEKVLGLSQGSVSDMLSRHKPWSKLTQKGREPFIRMQLWLSDQL here?
Answer: Its abundance fitness is -0.241 ± 0.05.

Question: With EVDTLELTRQVKEKLAKNGICQRIFGEKVLGLSQGSVSDMLSRSKPWSKLTQKGREPFIRMQLWLSDQL as the variant, how does the abundance fitness read?
Answer: The abundance fitness was -0.171 ± 0.036.

Question: Which abundance fitness does the source give for EVDTLELTRQVKEKLAKNGICQRIFGEKVLGLSQGSVSDMLSRAKPWSKLTQKGREPFIRMQLWLSDQL here?
Answer: Its abundance fitness is -0.103 ± 0.038.

Question: Which abundance fitness does the source give for EVDTLELTRQVKEKLAKNGICQRIFGEKVLGLSQGSVSDMLSRMKPWSKLTQKGREPFIRMQLWLSDQL here?
Answer: The abundance fitness was -0.196 ± 0.05.

Question: With EVDTLELTRQVKEKLAKNGICQRIFGEKVLGLSQGSVSDMLSRQKPWSKLTQKGREPFIRMQLWLSDQL as the variant, how does the abundance fitness read?
Answer: The abundance fitness was -0.135 ± 0.044.

Question: With EVDTLELTRQVKEKLAKNGICQRIFGEKVLGLSQGSVSDMLSRVKPWSKLTQKGREPFIRMQLWLSDQL as the variant, how does the abundance fitness read?
Answer: Its abundance fitness is -0.161 ± 0.035.

Question: Which abundance fitness does the source give for EVDTLELTRQVKEKLAKNGICQRIFGEKVLGLSQGSVSDMLSQPKPWSKLTQKGREPFIRMQLWLSDQL here?
Answer: The abundance fitness was -0.066 ± 0.044.

Question: Which abundance fitness does the source give for EVDTLELTRQVKEKLAKNGICQRIFGEKVLGLSQGSVSDMLSVPKPWSKLTQKGREPFIRMQLWLSDQL here?
Answer: Its abundance fitness is -0.23 ± 0.037.

Question: With EVDTLELTRQVKEKLAKNGICQRIFGEKVLGLSQGSVSDMLSPPKPWSKLTQKGREPFIRMQLWLSDQL as the variant, how does the abundance fitness read?
Answer: Its abundance fitness is -0.357 ± 0.027.

Question: For EVDTLELTRQVKEKLAKNGICQRIFGEKVLGLSQGSVSDMLSSPKPWSKLTQKGREPFIRMQLWLSDQL, which abundance fitness is on record?
Answer: Its abundance fitness is 0.064 ± 0.029.

Question: Which abundance fitness does the source give for EVDTLELTRQVKEKLAKNGICQRIFGEKVLGLSQGSVSDMLSWPKPWSKLTQKGREPFIRMQLWLSDQL here?
Answer: Its abundance fitness is -0.191 ± 0.049.

Question: For EVDTLELTRQVKEKLAKNGICQRIFGEKVLGLSQGSVSDMLSKPKPWSKLTQKGREPFIRMQLWLSDQL, which abundance fitness is on record?
Answer: Its abundance fitness is -0.047 ± 0.07.

— the Human Domainome abundance scans (Beltran et al. 2025)
